For the data set the following is noted: Escherichia coli (strain K12); pH 7.8; 25 °C; Urea; CD; potassium phosphate 10 mM; transition: 3; whole UniProt chain shown.

B1: Tryptophan synthase alpha chain wild type, P0A877 (protein)
chain: MERYESLFAQLKERKEGAFVPFVTLGDPGIEQSLKIIDTLIEAGADALELGIPFSDPLADGPTIQNATLRAFAAGVTPAQCFEMLALIRQKHPTIPIGLLMYANLVFNKGIDEFYAQCEKVGVDSVLVADVPVEESAPFRQAALRHNVAPIFICPPNADDDLLRQIASYGRGYTYLLSRAGVTGAENRAALPLNHLVAKLKEYNAAPPLQGFGISAPDQVKAAIDAGAAGAISGSAIVKIIEQHINEPEKMLAALKVFVQPMKAATRS
For B1, the denaturant m value was 2.29 kcal/mol/M, the “denaturant midpoint (higher = more stable)” value was 2.68 M and the unfolding free energy worked out at 6.13 kcal/mol.

The values are drawn from FireProtDB (doi:10.1016/s0022-2836(02)00737-4).
